The source of these data is PMC10853454, “ADAM19 cleaves the PTH receptor and associates with brachydactyly type E” (Life Science Alliance, 2024).

One assay deals with ADAM19 / EYFP-PTHR1. The experiment in a line: ADAM19 shedding assay, EYFP-PTHR1 supernatant/cell fluorescence ratio. Conditions: HEK-293T cells, EYFP-PTHR1 + WT ADAM19; 100 μM ilomastat in DMEM from 1 h after transfection, 48 h (method: 47 h); EYFP fluorescence 500/539 nm; n = 5, t test. It is filed as cell-based, human. The protocol: For fluorescence-based shedding experiments, HEK-293T cells were seeded in six-well cell culture plates at a density of 500,000 cells per well 24 h prior to transfection. Next day, cells in each well were transfected with 0.4 μg EYFP-PTHR1 plasmid and 0.8 μg ADAM19 or empty pcDNA3 vector plasmids. For the experiments in which the different ADAM:EYFP-PTHR1 ratios were examined, cells were transfected with a constant 0.3 μg EYFP-PTHR1 construct alongside with varying amounts of ADAM19 and pcDNA constructs to maintain the total DNA amount of 1.2 μg. 1 h after transfection, cells were supplemented with DMEM or with 100 μM ilomastat dissolved in DMEM. […] 96-well plate fluorescence measurements were performed using a Biotek Neo2 multi-well plate reader. EYFP intensity was measured using high lamp power settings at an excitation wavelength of 500/18 nm. Fluorescence was detected using a monochromator set to 539/20 nm for emission and a photomultiplier tube set to 120 V gain. To calculate and quantify the ADAM19-mediated shedding of PTHR1 N-terminus, background fluorescence value obtained from pure DMEM was subtracted from fluorescence values obtained from cell culture medium (Fsupernatant) and cell suspensions (Fcell), and then the ratio of background-corrected fluorescence values was calculated: Ratio = Fsupernatant/Fcell. […]

The test system of another assay is ADAM19 cleavage of PTHR1. Briefly: PTHR1 cleavage by ADAM19, Western blot after PNGase F de-glycosylation. Format: cell-based, human. The following applies: HEK-293T (text: HEK 293) cells, unmodified PTHR1 + ADAM19, 10 μM batimastat, inhibitors added 24 h, lysis 36 h after transfection, Western blot anti PTHR1 573–593. The protocol:
HEK-293T cells were seeded onto 12-well plates and transfected with plasmids encoding human P[…], ADAM-19 using TransIT-293 (Mirus) according to the manufacturer's instructions. Protease inhibitors were added to the medium 24 h after transfection as indicated. 36 h after transfection, cells were washed with PBS and lysed in ice-cold radioimmune precipitation assay buffer (50 mM Tris-HCl, pH 7.5, 150 mM NaCl, 1% [wt/vol] Nonidet P-40, 0.1% [wt/vol] SDS, 0.5% [wt/vol] sodium deoxycholate, 5 mM EDTA) supplemented with a mix of protease inhibitors (5 μM leupeptin, 5 μM pepstatin-A, 1 mM 4-(2-aminoethyl) benzenesulfonyl fluoride). The lysates were cleared by centrifugation at 20,000g for 30 min at 4°C. For deglycosylation, lysates were incubated with 40 mM dethiothreitol and 0.5% SDS for 90 min at 25°C. Thereafter, 1 mg/ml PNGase F was added, and samples were incubated for 16 h at 4°C. Proteins were separated by 8% or 10% SDS-PAGE and transferred onto PVDF membranes ([…], #T830.1; Carl Roth). The membranes were blocked in 5% skimmed milk powder (Sigma-Aldrich) or in casein solution (Sigma-Aldrich) for 1 h at RT. […] Proteins were detected either after short incubation in Immobilon Western ECL substrate (#WBKLS0500; Millipore) on an Odyssey FC device (Li-cor Biosciences) or on an Odyssey CLx scanner (Li-cor Biosciences). […]

Assay [1] deals with PTHR1 (cAMP accumulation). Briefly: FRET-based cAMP accumulation assay (Epac-S-H187) in U2OS cells. It is filed as cell-based, human. The following applies: 500 pM ligand. The protocol:
For cAMP accumulation assays, U2OS cells were seeded on Poly-D- Lysine-coated 24 mm glass cover slips in 6-well plates at a density of 1.0 × 10^6 cells/well and transfected with 1–2.4 μg cDNA per cover slip using Effectene (QIAGEN) or NEON electroporation (Thermo Fisher Scientific) according to the manufacturer’s protocol. cDNA was transfected with the EPAC-S-H187 FRET-biosensor ([Klarenbeek et al, 2015]), PTHR1-wt and ADAM19 at a ratio of 1:1:2. Fluorescence microscopy experiments were performed 48 h after transfection. For single-cell FRET imaging experiments, transfected cells on coverslips were transferred to imaging chambers (Attoflur; Thermo Fisher Scientific) and washed once and maintained in FRET imaging buffer (144 mM NaCl, 5.4 mM KCl, 2 mM CaCl2 [Carl Roth GmbH & Co. KG], 1 mM MgCl 2 [AppliChem], 10 mM HEPES [Sigma-Aldrich Chemie GmbH]; pH = 7.3). For the experiment, the cells remained at RT throughout the experiment. […]
After selecting suitable cells at the microscope, regions of interest (single cells and a cell-free background region) were chosen and recording parameters were set using the Visiview 4.0 imaging software (Visitron Systems). Every 5 s, images of the donor and acceptor emission channels were recorded following donor excitation at 436 nm for 100 ms. […] After every experiment, direct YFP excitation at 505 nm (emission: 560 nm) was recorded as a unit of measurement for the expression level of the sensor.
For data analysis, raw emission intensities from CFP and YFP channels were exported and corrected for background (by subtracting the emission intensities of a cell free region) and bleed-through of the donor fluorescence into the acceptor channel ([Borner et al, 2011]). FRET ratios (CFP/FRET in %) were calculated and normalized to baseline average of 10 data points before ligand addition, set to 0% and Forskolin/3-iso-butyl-1 methylxanthine (max. cAMP response, set to 100%). […]
A general note: Changes in cAMP serve as a functional read-out for many G protein-coupled receptors.

A further assay deals with PTH1R. The following applies: ref Hattersley et al, 2016; cited from earlier work.
The test system of a further assay is PTHR1 (Gq activation). Briefly: BRET-based Gq activation by PTHR1. It is filed as cell-based, human. The protocol: (§1) U2OS, Saos2 and HEK-293T cells were transfected with Gs or Gq protein BRET biosensors ([Che et al, 2010]), PTHR1 and ADAM19 at a ratio of 1:1:2. For β-arrestin2 BRET recruitment assay, PTHR1-Nanoluc was used with β-arrestin2-cpVenus and ADAM19 at a ratio of 1:1:2 ([Nemec et al, 2022]). Combinations were transfected with Effectene (QIAGEN) or NEON electroporation (Thermo Fisher Scientific) according to the manufacturer’s protocol with a total of 1–2.4 μg of cDNA. After 24 h cells were transferred into a PDL-precoated a white-wall, white-bottomed 96-well microtiter plate, at a density of 60,000 cells/well. 24 h after the reseeding, the medium was removed, and cells were washed once with PBS with 0.1% BSA and incubated with 90 μl of a 1:1,000 (vol:vol) stock solution of furimazine in PBS buffer. 5 min later, basal reads were recorded for 4 min and subsequently, 10 μl of 10-fold ligand solution or FRET buffer was applied to each well and the stimulated reads were further recorded. Measurements were performed at 37°C using a Synergy Neo2 Plate Reader with the NanoBRET filter set, integration time per data point was set to 0.3 s and gain to 110/140. Cells were excited at 510/20 nm and fluorescence emission was recorded at 560/20 nm for quantification of expression level ([Nemec et al, 2022]).

A further assay concerns PTHR1 (Gs activation). Briefly: BRET-based Gs activation by PTHR1. It is filed as cell-based, human. Conditions: HEK-293T cells with ADAM19; Gs BRET sensor, 37°C; three independent experiments in duplicates. The protocol:
as §1
In general terms: In BRET a luciferase serves as donor, and the signal depends on an acceptor being close.

Assay [2] has as its system PTHR1 (β-arrestin2 recruitment). The experiment in a line: BRET β-arrestin2 recruitment to PTHR1 in SaOS cells. Format: cell-based, human. Conditions: SaOS (Saos2) cells; PTHR1-Nanoluc + β-arrestin2-cpVenus BRET, 37°C. The protocol: as §1
For assay [3] the test system is unchanged. Briefly: BRET β-arrestin2 recruitment to PTHR1 in U2OS cells. It is filed as cell-based, human. The protocol:
as §1

For `CNC(=O)[C@H](Cc1c[nH]c2ccccc12)NC(=O)[C@@H](CC(=O)NO)CC(C)C` [Ilomastat (GM6001)], the “inhibition of PTHR1 cleavage by ADAM19” value with ADAM19 / EYFP-PTHR1 was “PTHR1 cleavage by ADAM19 was inhibited”.

As for `CNC(=O)[C@H](Cc1ccccc1)NC(=O)[C@H](CC(C)C)[C@H](CSc1cccs1)C(=O)NO` [batimastat], the “PTHR1 species detected with ADAM19 co-expression” value with ADAM19 cleavage of PTHR1 was “only the 60 kD species of PTHR1 were detected”.

Consider “PTH1-34: PTHR1 ligand, BACHEM #4033364 (SVSEIQLMHNLGKHLNSMERVEWLRKKLQDVHNF; Parathyroid hormone; UniProt P01270 32-65, looked up, fragment)”, for which, in assay [1] (U2OS cells with and without ADAM19, 0% = baseline, 100% = 10 μM Forskolin + 100 μM 3-iso-butyl-1 methylxanthine, "in both cases"), the “increase of FRET ratio (CFP/FRET), average” value is 70–80%. The cAMP response result in assay [1] (U2OS cells, PTH1R + Epac-S-H187, alone and with ADAM19, single-cell FRET, RT, pH 7.3) is on record as “an increase in cAMP was detected”. Further, the “difference in cAMP response with vs without ADAM19” value in assay [1] (U2OS cells, PTH1-34 n = 96 cells on 5 days (Welch t test), PTHrP n = 76 cells on 2 days (Mann-Whitney)) was “no significant differences”.

B1: PTH: parathyroid hormone; PTHR1 agonist, form used in BRET assays not specified (peptide, UniProt P01270 32-115, looked up)
Parathyroid hormone: SVSEIQLMHNLGKHLNSMERVEWLRKKLQDVHNFVALGAPLAPRDAGSQRPRKKEDNVLVESHEKSLGEADKADVNVLTKAKSQ
modifications: Parathyroid hormone
notes: parathyroid hormone; PTHR1 agonist, form used in BRET assays not specified
As to B1, in the assay on PTH1R, the “agonist type at PTH1R” value is reported as “full agonists”. Besides, the “Top of the curve (maximum efficacy), Gq, WT vs 56–63A mutant PTHR1” value in the assay with PTHR1 (Gq activation) (HEK293T with ADAM19, three-parameter non-linear fit, extra sum of squares F test (<0.0001), Fig 6B-E legend, panels not distinguished) was “significantly different”. In the assay on PTHR1 (Gq activation) (HEK-293T cells with ADAM19, Gq BRET sensor, 37°C, three independent experiments in duplicates), the “Gq-activation for WT PTHR1 compared to cleavage-protected PTHR1-56-63A mutant” value is recorded as “decreased Gq-activation”. For the same molecule, in the assay with PTHR1 (Gs activation), the “Gs-activation for WT PTHR1 compared to cleavage-protected PTHR1-56-63A mutant” value is listed as “increased Gs-activation”. Moreover, the “β-arrestin2 recruitment to PTHR1, presence vs absence of ADAM19” value in assay [2] was “significantly increased β-arrestin translocation to the PTHR1 when ADAM19 was present”; in assay [3] (PTHR1-Nanoluc + β-arrestin2-cpVenus BRET, 37°C, four experiments in quadruple), “significantly increased β-arrestin translocation to the PTHR1 when ADAM19 was present”. For the same molecule, the “Top of the curve (maximum efficacy), β-arrestin2 recruitment, with vs without ADAM19” value in assay [3] (three-parameter non-linear fit, extra sum of squares F test (<0.0001)) is given as “significantly different”.
